{"source": "the nanobody polyreactivity screen of Harvey et al. (2022)", "data": [{"test": "yeast display, Sf9 membrane polyspecificity reagent, FACS + sequencing; frameworks hold sequencing errors", "procedure,_shortened": "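Sorting gates, low and high (top ~1%), were placed on anti-HA fluorescence to track expression and on streptavidin fluorescence to track reagent binding. A clone's polyreactivity label is taken from the gate it came out of. The reagent was 10% biotinylated, detergent-solubilized Sf9 membrane, applied for 1 hour at 4 °C to galactose-induced yeast display cells.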", "values": [{"sequence": "QVQLLESGGGLVQAGVSLRLSCSASGFTFGRYAMGCYRQAHGKERELVAGITWSGGSTSYADSVKGRFTISRDNAKNTVYLQMNSLKPEDTAVYYCATRARYTRVHGRRYAYDYWGQGTQVTVSS", "polyreactivity (PSR sort gate)": "high polyreactivity"}, {"sequence": "QVQLLESGGGLVQARGSLRLICAASGRIFTDNAMGWYIQAPGKERELVATISKRGGRTYYADSVKGRFTISRDNAKNTVYLQMNSLKPEDTAVYYCNARPYWIDGSGLFPYDYWGQGTQVTVSS", "polyreactivity (PSR sort gate)": "high polyreactivity"}, {"sequence": "QVQLLESGGGLVQEGGSLRLSCAASGSIFEWYVMGWYRQAPGKERELVDTITSDCSSNYADSVKGRFTISRDNAKNTVYLQMNSLKPEDSAVYYCARDWRWDAWTRRGNDDGYWGQGTQVTVSS", "polyreactivity (PSR sort gate)": "low polyreactivity"}, {"sequence": "QVQLLESGGGLVQSGGILRLSCAASGRNFGRYAMGLYRQAPGKERELLATITWRGGITYYADSVKGRFTISRDNAMNTVSLQMNSLKPEDSAVYYCAAGYGRIPYVYWGKGTQVTVSS", "polyreactivity (PSR sort gate)": "high polyreactivity"}, {"sequence": "QVQLLESGGGLVQSGGSLRLSCAASGLTFGSNAMGWYRQATGKEREMVAAISYGGGSTSYADSVKGRFTISRDNAKNTVYLQMNSLKPEDTSVYYCAVVWLCAYSRTNYYYWGQGTQVTVSS", "polyreactivity (PSR sort gate)": "low polyreactivity"}, {"sequence": "QVQLLESGGGLVQVGGSLRLSCAASGTIFIYGFLGWNRQAPGKERELVASINLGGITNYADSEKGRFTISRDNAINTGFLQMISLKPEDTAVYYCAAYVVTCQNYGYWGHGTQVTVSS", "polyreactivity (PSR sort gate)": "low polyreactivity"}, {"sequence": "QVQLLESGGGVVQAGGSLRLSCAASGFTFLYNTMGGYRQAPGKVRELVAAISIRGGSTYYADSVKGRFTISRDNAKNTVYLQMNSLKPEDNAVYYCAARTPTPASRSRVYYWGHGTQVTVSS", "polyreactivity (PSR sort gate)": "high polyreactivity"}, {"sequence": "QVQLLESGRGLDQAGGSLRLSCAASGGTYKTNPMGMYRQAPGKEMELVAAITGSGTSTYYADSVKGRFTISRDYAKNTVYLQMNSLNPEDTAVYYCAADKLYHPGIGDDYWGQGTQETVSS", "polyreactivity (PSR sort gate)": "low polyreactivity"}, {"sequence": "QVQLLESVGGLVQAGGRLRLTCDATGSIFRYYAMGWYRQEPGKERELVATISSGGRTYYADSVKGRFTISRDNAKNTVYLQMNSLKPEDTAVYYCAKVGWSRRYYYWGQGTQVTVSS", "polyreactivity (PSR sort gate)": "high polyreactivity"}, {"sequence": "QVQLLESWGGLVQAGGSLRLSCAASGFIFRGYAMGWYRQAPGKDRELVAAISTGGGRTYYADSVKGRFTISRDNAKNTVYLQMNSLKPDDTAVYYCIRRSYTQVLMDYWGQGTQVTVSS", "polyreactivity (PSR sort gate)": "high polyreactivity"}, {"sequence": "QVQLLETGGGLVQAGGSLRLSCAPSGSTFYYYAMGWYRQAPGKEWELVAAISWSGVSTYYADSVKGRFTISRDNAKTTVYLQMNSLKPEDNAVYYCNADSYTLYGRYDYWGQGTQVTVSS", "polyreactivity (PSR sort gate)": "low polyreactivity"}, {"sequence": "QVQLLETGRGLVQAGGSLRLSCAPSGITFRYYAMGWYRQAPGQERELVAAITRSGGSTYYADSVKGRFTLSRYNAKNTVYLQMNSLKPEDTAVYYCAAQPVSRHTGTFYRSNGYDYWGQVTQVTVSS", "polyreactivity (PSR sort gate)": "high polyreactivity"}, {"sequence": "QVQLLQSGGGLVQAGGSLRLSCAASGFIFLGYAMGWYRQAPGNERELVAAISENSGTTSYADSVKGRFTISRDNAKNTVYLQMNSLKPEDTAVYYCAADSIGNYLLYDYWGQGTQVTVSS", "polyreactivity (PSR sort gate)": "low polyreactivity"}, {"sequence": "QVQLPESGGGLLQAGGGLRLSCAASGSITSTGYMGWYRPAPGKEREPVAAIAAGTTTYYADSVKARFTISRDNAKNTVYLQMNCLRPEDTAVYYCAVFTDNRLAFLYWGQGTQVTVSS", "polyreactivity (PSR sort gate)": "low polyreactivity"}, {"sequence": "QVQLQERAAWCRRAGSLRLSFAASGNISDYYFMGWYRQAPGKEREIFAAIAPGSNTFFADSVKGRFTISRDNATNTVYLQMNSLNPEDTAVYYCARQGTIYSYDIVYPRLDYWGQGTQVTVSS", "polyreactivity (PSR sort gate)": "low polyreactivity"}, {"sequence": "QVQLQERGGGLVQAGGSLRQSCAASGTISDRAGMGWYRQAPAKNAIVATIDRGTNTNYADSVKGRFTISRDNAKNTVYLQMNSLKPEDTAVYNCAAVGRYNIYLDYWGQGTQVTVSS", "polyreactivity (PSR sort gate)": "low polyreactivity"}, {"sequence": "QVQLQESDGGLVQAGGSLRLSCAASGSISPQYYMGWYRQEPGKEREFVAISKGTTTYYADSVKGRLTISRVNAKNTVYLQMNSLKPEDTAVYCCAAGRWLQKVHAYWDQGTQVTVSS", "polyreactivity (PSR sort gate)": "low polyreactivity"}, {"sequence": "QVQLQESDGGLVQAGGSLRLSCAASGSISPQYYMGWYRQEPGKEREYVAISKGTTTYYADSVKGRLTISRVNAKNTVYLQMNRLKPEDTAVYCCAAGRWLQKVHAYWDQGTQVTVSS", "polyreactivity (PSR sort gate)": "low polyreactivity"}, {"sequence": "QVQLQESGAGLEQAGGSLRMSCAASGYSSDIGTMGWYRQAPGKEREFVATIVVGSTTNYADSVKGRFTISRDNAKNTVYLQPESGRYRGVLLRGWLLAVGKFTYWGQGTQETVSS", "polyreactivity (PSR sort gate)": "low polyreactivity"}, {"sequence": "QVQLQESGAGLVQAGGSLRLTCAASGSIFLFYTMGWYRQAPVKEREFVAGITLGTTTYNADSVKGRFTISRDNVKNTVYLQMNSLKPEDTAVYYCAVAVGHYTEFWYWGQGTQVTMSS", "polyreactivity (PSR sort gate)": "high polyreactivity"}, {"sequence": "QVQLQESGAGPVLAGGSLRLSCAASGTIYVRLDMGWYRQAPGKEREFVATIGSGSSTYYADSVKGSFTISRDNVKNTVYLQMNSLNPEVTAVYYCAVSAAEQSRHYYWAQGTQVTVSS", "polyreactivity (PSR sort gate)": "low polyreactivity"}, {"sequence": "QVQLQESGCGLVQAGGCLSCTASGTIFGQGDMGWYRQAPGKERELVATINDGASTYYADSVKGRFTISRDKAKNTVYLQMNSLKPEDTAVYYCAAVIRPRYYQVRPRYDYWGQGTQVTVSS", "polyreactivity (PSR sort gate)": "low polyreactivity"}, {"sequence": "QVQLQESGCGLVQAGGSLRLSCAASGNIFEADIMGWYHQAQGKERELVASITDGGSTNYADSVKGRFTINRDNAKNNVYLQMNSLKPEDTAVYSCAAIAYPDIPTYFDYDSDYFYWGQGTQVTVSS", "polyreactivity (PSR sort gate)": "high polyreactivity"}, {"sequence": "QVQLQESGDGLLQAVGSLRLSCAASGYISGYYYMGWYRQAPGKERELVAGIDAFGSSTNYADCVKGRFTISRDNGKNTVYLQMNSLKPEDTAVYYCAARPDGDRLFSYWGQGTQVTVSS", "polyreactivity (PSR sort gate)": "low polyreactivity"}, {"sequence": "QVQLQESGDGLVQAVGSLRLSCAASGYSSGYYYMGWYRQAPGKERELVAGIDAFGISTNYADCVKGRFTISRDNAKNTVYLQMTSLKPEDTAVYYCAARPDGDRLFSYWGQGTQVTVSI", "polyreactivity (PSR sort gate)": "low polyreactivity"}, {"sequence": "QVQLQESGGGLAQAVGSLRLSCAASGNIFDPDIMGSYRQAPAKERELVGSITHGGSTNYVDSVKGRFTISRDNATNTVHLQMNRLKPVDTGVYYCAAIGYPDIPSYFDYDSDFFNWGHGTQVTVSS", "polyreactivity (PSR sort gate)": "high polyreactivity"}, {"sequence": "QVQLQESGGGLEKACGSLRLSCAASVNISPRDAMCWYRQAPGEERDLVASNAYSAITYYADGVKGRYTISRDNAKNTVYLHMNSLKPEDTEVYYCAVYQFPYPVFPAYCGQGTQVTVSS", "polyreactivity (PSR sort gate)": "low polyreactivity"}, {"sequence": "QVQLQESGGGLEQAGGSLRMSCAASGTIFSEANMGWYRQAPGKERELVATIGQGSTTNYADSVKGRFTISRDNAKNTVYLQMNSLKPEETPVYYCAVVTVDPVGFVYWGQGTQVTVSS", "polyreactivity (PSR sort gate)": "low polyreactivity"}, {"sequence": "QVQLQESGGGLMQAGGSQRLSCAASGSISSYSDMGWYRQAPGKEREFVAGIGYGTTTNYADSVKGRFTTSRDNAKNTVYLQMISMKPEDTAVYYCAAYQGNGYEFYYWGQGTQVTVRS", "polyreactivity (PSR sort gate)": "low polyreactivity"}, {"sequence": "QVQLQESGGGLMQAGGSQRLSCAASGSISYYSDRGWYRQAPGKEREFVAGIGYGTTTNYADSVKGRFTTSRDNAKNTVYLQMICMKPEDTAVYYCAAYQGNGYEFYYWGQGTQVTVRS", "polyreactivity (PSR sort gate)": "low polyreactivity"}, {"sequence": "QVQLQESGGGLVHAAGILRLSCAACGNIFPSAVMGWYRQALGKEREFVATLNSGSNTYYADSVKGRFTIRRDNAKNTVYLQMNSLKLEDTGVYYCAAYFNLPAWHTYWGQGTQVTVSS", "polyreactivity (PSR sort gate)": "low polyreactivity"}, {"sequence": "QVQLQESGGGLVHACGSLRPSCAASGSISDSWRMSWYRQAPGTEREFVAGITWGGTTNYADSVKGRFTISRDNAKNTVYLQMNSLKPEDTAVYYCNARQRTYYRTHRIRHKGNGYWGQGTQVTVSS", "polyreactivity (PSR sort gate)": "low polyreactivity"}, {"sequence": "QVQLQESGGGLVHAGGSLRLSCAASGTISFINMMGWNRQAPGRERELVASINFGANTNYADSVKGRFTISRDNAKNTVYVQMNSLKPEDTAVYYCAVYDFDAYTLDYWGQGTLVTVSS", "polyreactivity (PSR sort gate)": "high polyreactivity"}, {"sequence": "QVQLQESGGGLVHAGGSLRLSCAASGTISFINMMGWYRQAAGRERELVASINFGANTNYADSVKGRFTISRDNAKNTVYLQMNSLKPEDTAVYYCAVYDFDAYTLYYWGQGTLVTVSS", "polyreactivity (PSR sort gate)": "high polyreactivity"}, {"sequence": "QVQLQESGGGLVHPGGSLRLSCAASCSISHYIFMGWYRQAPGKEREFVAGIGYGGTTNYADSVKGRFTISRDNAKNTVYLQMNSLKPEDTAMYYCAAREATEFYLYYWGQGTQVTVSS", "polyreactivity (PSR sort gate)": "low polyreactivity"}, {"sequence": "QVQLQESGGGLVKAGGSLRLSCAASGNISNHNDMGWYRQAPGKEREFVAGITAGGNTNYADSVKGRFTISRDNAKNTVYLQMNSLKPEDTAVYYCAAYPDYAKSYGYWGQGTQATVSS", "polyreactivity (PSR sort gate)": "low polyreactivity"}, {"sequence": "QVQLQESGGGLVKAGGSLRLSCAASGNISPRDAMGWYRQAPGEERDLVASNAYSAITYYADGVKGRYSISRDNAKNTVYLQMNSLKPEDTEVYYCAVYQFTYPVFPAYWGQGTQVSVSS", "polyreactivity (PSR sort gate)": "low polyreactivity"}, {"sequence": "QVQLQESGGGLVLAGGSLRLSCAASGSIFLFYTMGWYRQAPVKEREFVAGITLRTPTYNADSVKGRFTISRDNVKNTVYLQMNSLKPEDTAVYYCAVAVGHYTEIWYWGQGTQVTMSS", "polyreactivity (PSR sort gate)": "high polyreactivity"}, {"sequence": "QVQLQESGGGLVQAGDSQRLSCAASGNIFRFTDMGWYRKAPGKERELVAAINAGSTTYYADSVKGRFTISRDNAKNTVYLQMNSLKPEDTAVYYCAVYYLGSGTFGYWGQGAQVTVSS", "polyreactivity (PSR sort gate)": "high polyreactivity"}, {"sequence": "QVQLQESGGGLVQAGGCLSCTASGTIFGQGDMGWYRQAPGKERELVATINDGASTYYADSVKGRFTISRDKAKNTVNLQKNSLKPDDTAVYYCAVFTDITTYFGYWGQGTQVTVSS", "polyreactivity (PSR sort gate)": "low polyreactivity"}, {"sequence": "QVQLQESGGGLVQAGGGLRLSCAASGTISGPHVMGWYRQAPGEEREFVAAINVGANTYYADNVKGRFTISRDNAKNTVYLQMNSLKPEDTAVYYCAAVYYGDIGHEYWGQGTQVTVSC", "polyreactivity (PSR sort gate)": "low polyreactivity"}, {"sequence": "QVQLQESGGGLVQAGGGLRLSCAASGTISGPHVMGWYRQAPGKEREFVAAINVGANTYYADNVKGRFTISRDNAINTVYLQMNSLKPEDTAVYYCAAVYYGDIGHEYWGQGTQVTVSC", "polyreactivity (PSR sort gate)": "low polyreactivity"}, {"sequence": "QVQLQESGGGLVQAGGNPRLSCAASGNSSWSAHMGWYRQTPGKERELVASNTAGTSTNYADSVKGRFTISRDNAKNTVYLQMNSLKPEDTAVSYCATLGYFSASRTDYDYWGQGTQVTVSS", "polyreactivity (PSR sort gate)": "low polyreactivity"}]}]}
